Experimental findings from paper PMC7385642 are described below.

Assay [1] concerns the target YSD1_16, auxiliary protein of phage YSD1 (in the virion) (phage YSD1). Briefly: cryo-EM structure; single-particle icosahedral reconstruction of the head of purified YSD1 virions (assembled in infected bacteria), 3.8 Å.
The target of assay [2] is YSD1_17, major capsid protein of phage YSD1 (in the virion) (phage YSD1). Described as above.
In assay [3] the target is YSD1_22 delta-HP (residues 45-69 removed and replaced with a glycine) with C-terminal hexa-histidine tag (phage YSD1). Briefly: SEC-MALS; in-line refractive index and multi-angle laser light scattering (DAWN HELEOS-II, Optilab T-rEX), 25 mM Tris pH 8.0, 200 mM NaCl. A general note: SEC sorts molecules by how far they enter the pores of the column.
Assay [4] addresses YSD1_22, tail-tube protein of phage YSD1 (in the virion tail) (phage YSD1). Briefly: cryo-EM structure; helical reconstruction (C6 symmetry) of the tail tube of purified YSD1 virions (assembled in infected bacteria), 3.5 Å.

Values joined by “and” are separate entries in the source; they are usually repeats but may differ in a detail not shown here. Equal values may be shown once.

For orientation: stoichiometry N means the number of molecules, sites or subunits per partner or assembly. On to “YSD1_16, auxiliary protein of phage YSD1 (in the virion) (natural protein)”, for which the stoichiometry N in assay [1] was 3. With “YSD1_17, major capsid protein of phage YSD1 (in the virion) (natural protein)”, in assay [2], the stoichiometry N is 5 and 6. Substance “YSD1_22 delta-HP (residues 45-69 removed and replaced with a glycine) with C-terminal hexa-histidine tag (natural protein)” returned a stoichiometry N in assay [3] of 6. With “YSD1_22, tail-tube protein of phage YSD1 (in the virion tail) (natural protein)”, the stoichiometry N in assay [4] is 6.
